Tests used:
[1] = target: T1, human complement C2 zymogen (human, UniProt P06681 21-752); test: SPR kinetics, captured antibody, analyte huC2 2000 mM Ca^2+ (so in the source), pH 7.3
T1 construct: also called huC2; human C2
T1 sequence: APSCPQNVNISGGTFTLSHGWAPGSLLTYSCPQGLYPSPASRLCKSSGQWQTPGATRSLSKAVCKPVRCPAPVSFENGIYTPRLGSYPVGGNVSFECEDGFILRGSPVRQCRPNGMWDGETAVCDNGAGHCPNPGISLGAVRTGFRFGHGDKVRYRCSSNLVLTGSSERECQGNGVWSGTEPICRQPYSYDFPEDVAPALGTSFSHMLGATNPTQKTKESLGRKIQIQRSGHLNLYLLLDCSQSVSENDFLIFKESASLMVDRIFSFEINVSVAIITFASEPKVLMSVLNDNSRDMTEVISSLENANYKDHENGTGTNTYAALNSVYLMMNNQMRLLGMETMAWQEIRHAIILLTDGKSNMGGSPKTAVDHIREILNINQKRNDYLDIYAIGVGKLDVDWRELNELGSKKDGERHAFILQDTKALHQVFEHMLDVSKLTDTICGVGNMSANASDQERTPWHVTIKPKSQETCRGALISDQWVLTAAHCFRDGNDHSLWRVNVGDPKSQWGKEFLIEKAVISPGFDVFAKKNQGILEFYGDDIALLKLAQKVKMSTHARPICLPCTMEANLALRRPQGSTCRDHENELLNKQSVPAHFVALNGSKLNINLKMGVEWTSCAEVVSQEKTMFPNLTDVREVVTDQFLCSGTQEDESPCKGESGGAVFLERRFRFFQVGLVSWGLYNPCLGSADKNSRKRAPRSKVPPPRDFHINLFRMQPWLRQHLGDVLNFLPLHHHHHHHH
Description: (§1) Surface plasmon resonance (SPR, Biacore) was used for all binding affinity analyses. In brief, goat anti-human IgG was directly immobilised onto the carboxymethyl dextran surface of CM5 sensorchips to approximately 12,000 RU using standard NHS/EDC chemistry at pH 5. The immobilised antibody surface was pre-conditioned with ten injections of polyclonal human IgG (Privigen 60 s) prepared at 1 μg/mL. Ligands (anti-C2 mAbs) were captured at the beginning of each cycle as described below. An adjacent spot or flow cell in which only Polyclonal IgG was capture was used as a reference surface. The goat anti-human IgG Fc antibody surface was regenerate in 100 mM H3PO4, injected for 45 seconds at the end of each cycle. Experiments were performed at 37° C. and the flow rate of each experiment was kept constant at 30 μL/min.
(§2) Calcium concentrations ranged from zero (i.e. no added calcium, control) to near physiological levels (0.02, 0.2 and 2 mM CaCl₂.2H₂O, MW 147.02 Da).

[2] = target: T1, human complement C2 zymogen; test: SPR steady state, captured antibody, analyte huC2 20 mM Ca^2+ (so in the source), pH 6.0
Description: as §1
(§3) Sensogram data was double-referenced against a reference anti-IgG surface (i.e. minus anti-C2 mAb) and blank buffer injections obtained within each experiment. The binding data was fit to 1:1 (kinetic or steady-state) model using local Rmax and null refraction index (RI=0) when appropriate. Buffers and solutions were filtered (0.22 μm) prior to use.
as §2

[3] = target: T2, human C2a (activated human C2) (human, UniProt P06681 244-752); test: SPR, HBS-EP, pH 7.3, 37 C
T2 construct: the whole entry is named here; also called huC2a
T2 sequence: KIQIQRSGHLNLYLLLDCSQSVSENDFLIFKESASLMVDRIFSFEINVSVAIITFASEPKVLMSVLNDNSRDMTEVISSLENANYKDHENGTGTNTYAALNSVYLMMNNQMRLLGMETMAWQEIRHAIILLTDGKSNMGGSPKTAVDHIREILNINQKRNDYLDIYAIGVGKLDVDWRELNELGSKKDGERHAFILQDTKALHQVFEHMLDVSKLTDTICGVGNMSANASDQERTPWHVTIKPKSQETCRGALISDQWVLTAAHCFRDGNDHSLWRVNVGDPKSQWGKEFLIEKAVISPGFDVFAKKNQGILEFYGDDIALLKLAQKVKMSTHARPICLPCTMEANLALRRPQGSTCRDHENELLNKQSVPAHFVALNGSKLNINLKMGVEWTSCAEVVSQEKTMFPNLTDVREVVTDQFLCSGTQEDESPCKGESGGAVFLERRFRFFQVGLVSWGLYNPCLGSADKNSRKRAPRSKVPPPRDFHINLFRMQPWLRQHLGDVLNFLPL
Description: as §1
(§4) Purified human C2 zymogen and human C2a were tested at concentrations ranging from 1.9 to 500 nM while human C2b was tested at concentrations ranging from 1.9 to 1000 nM. All experiments were performed in HBS-EP buffer supplemented with 0.1% BSA at 37° C. and pH 7.3. Each antibody was tested against human C2 zymogen and human C2a in duplicate and against C2b in quadruplicate. The flow rate was set to 30 μL/min. Each analyte concentration was tested in duplicate.

human C2b = target: T3, human C2b (human, UniProt P06681 21-243); test: SPR, HBS-EP, pH 7.3, 37 C
T3 construct: the whole entry is named here
T3 sequence: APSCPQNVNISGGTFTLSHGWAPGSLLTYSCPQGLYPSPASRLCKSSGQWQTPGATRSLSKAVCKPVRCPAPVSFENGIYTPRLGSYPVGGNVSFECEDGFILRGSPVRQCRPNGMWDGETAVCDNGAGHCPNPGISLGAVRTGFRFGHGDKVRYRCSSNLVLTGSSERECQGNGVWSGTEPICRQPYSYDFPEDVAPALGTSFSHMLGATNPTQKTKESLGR
Description: as §1, §4

[4] = target: T1, human complement C2 zymogen; test: SPR steady state, captured antibody, analyte huC2 2000 mM Ca^2+ (so in the source), pH 6.0
Description: as §1, §2

[5] = target: T1, human complement C2 zymogen; test: SPR steady state, captured antibody, analyte huC2 0 mM Ca^2+, pH 6.0
Description: as §1, §2

[6] = target: T1, human complement C2 zymogen; test: SPR kinetics, captured antibody, analyte huC2 200 mM Ca^2+ (so in the source), pH 7.3
Description: as §1, §2

[7] = target: T4, cynomolgus monkey FcRn/β2m (cynomolgus monkey, UniProt Q8SPV9 24-297; Q8SPW0 21-119, limits assumed); test: SPR, immobilised antibody, cyno FcRn/b2m analyte, pH 6.0; pH 6.0
T4 construct: injected in solution over immobilised antibody; also called Cyno FcRn/β2m
Description: Anti-C2 mAbs (1 μg/mL at pH 5) were immobilized on a carboxylmethyldextran (CM5) sensorchip surface using standard EDC/NHS chemistry. Human and Cyno FcRn/β2m (40 μM) were prepared in running buffer (10 mM HEPES, 150 mM NaCl, 10 mM MES adjusted to either pH 6 or pH 7.3) and injected on the immobilized anti-C2 surface at concentrations ranging from 0.078 to 40 μM, prepared in two-fold dilutions in running buffer. Association and dissociation phases were monitored for 180 and 600 seconds, respectively. […] Double referenced sensorgrams were fitted to either a 1:1 kinetic model (pH 6), including a term for mass transport limitation or to a 1:1 steady state model (pH 7.3) where responses at the end of the association phase were plotted against respective concentrations.
Binding to both human and cynomolgus monkey FcRn was tested using the SPR methods described above.

[8] = target: T1, human complement C2 zymogen; test: SPR kinetics, captured antibody, analyte huC2 20 mM Ca^2+ (so in the source), pH 7.3
Description: as §1, §2

[9] = target: T1, human complement C2 zymogen; test: SPR steady state, captured antibody, analyte huC2 200 mM Ca^2+ (so in the source), pH 6.0
Description: as §1, §3, §2

[10] = target: T1, human complement C2 zymogen; test: SPR, human C2 zymogen analyte, HBS-EP, pH 7.3, 37 C
Description: as §1, §4

[11] = target: T1, human complement C2 zymogen; test: SPR kinetics, captured antibody, analyte huC2 0 mM Ca^2+, pH 7.3
Description: as §1, §2

cynomolgus monkey C2 [12] = target: T5, cynomolgus monkey C2 (cynomolgus monkey, UniProt G8F3W0 21-752); test: cell-based or functional assay
T5 sequence: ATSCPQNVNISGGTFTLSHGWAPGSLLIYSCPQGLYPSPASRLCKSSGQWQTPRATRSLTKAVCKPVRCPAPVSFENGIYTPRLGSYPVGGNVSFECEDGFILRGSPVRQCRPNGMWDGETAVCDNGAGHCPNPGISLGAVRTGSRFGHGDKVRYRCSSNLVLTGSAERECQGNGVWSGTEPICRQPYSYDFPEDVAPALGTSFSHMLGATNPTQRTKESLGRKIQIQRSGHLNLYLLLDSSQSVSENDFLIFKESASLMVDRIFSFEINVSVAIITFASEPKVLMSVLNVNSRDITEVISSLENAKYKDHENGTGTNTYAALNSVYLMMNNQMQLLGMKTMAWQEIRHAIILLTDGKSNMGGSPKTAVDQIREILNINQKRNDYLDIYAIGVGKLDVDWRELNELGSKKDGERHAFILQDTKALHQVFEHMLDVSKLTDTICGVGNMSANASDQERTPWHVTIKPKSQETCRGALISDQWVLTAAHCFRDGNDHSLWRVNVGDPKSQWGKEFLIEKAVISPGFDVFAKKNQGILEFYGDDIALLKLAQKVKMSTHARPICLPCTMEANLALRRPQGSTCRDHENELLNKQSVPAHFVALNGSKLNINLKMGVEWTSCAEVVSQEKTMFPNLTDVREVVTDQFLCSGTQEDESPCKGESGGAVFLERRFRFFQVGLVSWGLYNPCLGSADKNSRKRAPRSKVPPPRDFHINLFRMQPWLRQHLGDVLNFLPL

human complement C2 [13] = target: T6, human complement C2 (human, UniProt P06681 21-752); test: SPR, mAb captured, C2 analyte, HBS-EP, pH 7.3
T6 construct: Recombinant full-length human C2 with C-terminal 8x His tag, purified from Expi293F supernatant; also called human C2; huC2
T6 sequence: T1 sequence

human complement C2 [14] = target: T6, human complement C2; test: SPR, mAb captured, C2 analyte, MHAs buffer, pH 7.3
Description: as §1
This buffer contains ammonium sulfate instead of sodium chloride.

human complement C2 [15] = target: T6, human complement C2; test: cell-based or functional assay
cynomolgus monkey C2 [16] = target: T5, cynomolgus monkey C2; test: cell-based or functional assay; remark: listed apart in the source
human complement C2 [17] = target: T6, human complement C2; test: cell-based or functional assay; remark: listed apart in the source
human complement C2 [18] = target: T6, human complement C2; test: SPR, mAb captured, C2 analyte, HBS-EP, pH 6.0, steady state
cynomolgus monkey C2 [19] = target: T5, cynomolgus monkey C2; test: SPR, mAb captured, cyno C2 analyte, pH 7.3
Description: as §1
(§5) In addition to human C2, the pH dependent anti-C2 antibodies were also tested for their ability to bind to C2 from other mammalian species using the SPR methods described above in order to identify suitable surrogate species for in vivo testing. The antibodies were tested for binding at neutral pH against C2 from cynomolgus monkeys, mice, dogs, rabbits, rats, pigs, and sheep.

mouse C2 = target: T7, mouse C2 (mouse, UniProt P21180 19-760, limits assumed); test: SPR, mAb captured, mouse C2 analyte, pH 7.3
T7 sequence (looked up): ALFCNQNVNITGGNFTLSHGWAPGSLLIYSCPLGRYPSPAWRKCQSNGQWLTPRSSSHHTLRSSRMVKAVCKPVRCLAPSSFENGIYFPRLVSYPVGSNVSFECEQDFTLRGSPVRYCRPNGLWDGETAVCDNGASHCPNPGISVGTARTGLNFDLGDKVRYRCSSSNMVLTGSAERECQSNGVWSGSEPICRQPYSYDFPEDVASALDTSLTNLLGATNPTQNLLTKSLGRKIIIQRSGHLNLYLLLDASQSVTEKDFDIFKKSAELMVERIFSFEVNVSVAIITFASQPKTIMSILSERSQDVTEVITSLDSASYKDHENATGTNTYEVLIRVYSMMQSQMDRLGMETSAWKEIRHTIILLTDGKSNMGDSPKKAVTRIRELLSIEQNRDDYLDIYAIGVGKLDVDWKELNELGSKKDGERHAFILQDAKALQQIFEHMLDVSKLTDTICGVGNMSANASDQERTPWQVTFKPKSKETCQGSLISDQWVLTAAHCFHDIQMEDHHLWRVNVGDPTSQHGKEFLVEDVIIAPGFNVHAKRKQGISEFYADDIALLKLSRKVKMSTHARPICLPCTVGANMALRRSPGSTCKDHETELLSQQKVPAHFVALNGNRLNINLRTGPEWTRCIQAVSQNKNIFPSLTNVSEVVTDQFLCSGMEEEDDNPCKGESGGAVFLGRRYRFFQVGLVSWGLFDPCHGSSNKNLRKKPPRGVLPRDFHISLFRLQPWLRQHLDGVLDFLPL
Description: as §1, §5

T4 sequence (Q8SPV9 24-297 limits assumed, chain 1 of 2): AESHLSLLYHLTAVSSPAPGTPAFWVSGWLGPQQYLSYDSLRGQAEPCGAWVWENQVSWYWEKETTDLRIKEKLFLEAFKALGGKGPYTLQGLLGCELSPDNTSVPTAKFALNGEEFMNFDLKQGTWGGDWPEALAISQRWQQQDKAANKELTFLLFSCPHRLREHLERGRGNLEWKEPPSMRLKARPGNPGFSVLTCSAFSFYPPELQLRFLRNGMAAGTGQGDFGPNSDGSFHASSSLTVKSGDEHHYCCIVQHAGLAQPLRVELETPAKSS
T4 sequence (Q8SPW0 21-119 limits assumed, chain 2 of 2): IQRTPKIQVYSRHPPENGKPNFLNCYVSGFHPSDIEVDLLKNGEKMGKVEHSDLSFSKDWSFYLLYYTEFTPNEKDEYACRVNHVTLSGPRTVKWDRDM

B1: RF16-226 (antibody, human IgG4 S228P, lambda)
heavy: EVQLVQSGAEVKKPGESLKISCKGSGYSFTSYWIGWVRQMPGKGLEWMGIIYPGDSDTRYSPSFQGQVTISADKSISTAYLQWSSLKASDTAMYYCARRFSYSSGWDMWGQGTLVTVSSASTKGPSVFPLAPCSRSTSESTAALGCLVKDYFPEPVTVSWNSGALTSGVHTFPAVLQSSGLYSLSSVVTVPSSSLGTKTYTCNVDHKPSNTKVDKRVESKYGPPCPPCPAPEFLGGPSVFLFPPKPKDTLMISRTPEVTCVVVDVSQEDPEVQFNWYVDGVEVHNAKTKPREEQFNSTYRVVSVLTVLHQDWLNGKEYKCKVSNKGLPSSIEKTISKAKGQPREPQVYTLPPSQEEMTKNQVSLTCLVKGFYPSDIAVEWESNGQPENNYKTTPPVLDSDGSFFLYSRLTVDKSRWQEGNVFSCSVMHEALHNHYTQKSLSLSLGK
light: SYELTQPPSVSVSPGQTARITCSGDALTSKYVAWYQQKSGLAPLLVIYEDTRRPSGIPAKFSGSSSGSVATLTISGAHGDDEADYYCYSTDASGHQRVFGGGTKLTVLSQPKAAPSVTLFPPSSEELQANKATLVCLISDFYPGAVTVAWKADGSPVKAGVETTKPSKQSNNKYAASSYLSLTPEQWKSHRSYSCQVTHEGSTVEKTVAPTECS
notes: Human antibody from a phage display library, unmodified Fc; also called WT
With B1 the Kd [1] was 11.1 nM, the koff [1] was 0.0062 s⁻¹ and the kon [1] was 561000 M⁻¹ s⁻¹. For the same binder, the Kd [2] was 87.4 nM, the binding result [3] was “no binding (tested: C2a tested up to 500 nM)” and the binding result (human C2b) was “no binding (tested: C2b tested up to 1000 nM)”. For the same binder, the Kd [4] was 111 nM, the Kd [5] was 93.6 nM and the Kd [6] was 9.3 nM. For the same binder, the koff [6] was 0.0059 s⁻¹, the kon [6] was 631000 M⁻¹ s⁻¹ and the Kd [7] was 2100 nM. It also gave a Kd [8] of 10.2 nM, a koff [8] of 0.0057 s⁻¹ and a kon [8] of 569000 M⁻¹ s⁻¹. The Kd [9] was 94.2 nM, the Kd [10] was 8 nM and the Kd [11] was 9.2 nM. For the same binder, the koff [11] was 0.00499 s⁻¹ and the kon [11] was 546000 M⁻¹ s⁻¹.

B2: RF16-203 (antibody, V domains shown)
VH: EVQLLESGGGLVQPGGSLRLSCAASGFTFSRYYMMWVRQAPGKGLEWVSSIGSSGGTTNYADSVKGRFTISRDNSKNTLYLQMNSLRAEDTATYYCAKGGMVLGVVNIWGQGTLVTVSS
VL: QSALTQPPSVSVSPGQTATITCSGDKLGEKYVSWYQQKPGQSPVVVIFQDIKRPSGIPERFSGSNSGNTATLTISGTQAMDEADYYCQTWGTGGIQVFGGGTKLTVLR
notes: Human antibody from a phage display library
With B2 the “IC50, inhibition of cynomolgus classical complement pathway (Wieslab assay)” value (cynomolgus monkey C2 [12]) was 13.3 nM, the “IC50, inhibition of cynomolgus lectin complement pathway (Wieslab assay)” value (cynomolgus monkey C2 [12]) was 112 nM and the Kd (human complement C2 [13]) was 2.5 nM. For the same binder, the Kd (human complement C2 [14]) was 12.6 nM, the “IC50, inhibition of human classical pathway (hemolysis assay)” value (human complement C2 [15]) was 42 nM and the “IC50, inhibition of cyno classical pathway (hemolysis assay)” value (cynomolgus monkey C2 [16]) was 361 nM. For the same binder, the “IC50, inhibition of human classical complement pathway (Wieslab assay)” value (human complement C2 [17]) was 5.4 nM, the “IC50, inhibition of human lectin complement pathway (Wieslab assay)” value (human complement C2 [17]) was 1.29 nM and the Kd (human complement C2 [18]) was 73 nM. For the same binder, the Kd (cynomolgus monkey C2 [19]) was 2.82 nM and the Kd (mouse C2) was 153 nM.
